Sequences and labels used below:
T1: human CD19 (human, UniProt P15391 20-556)
T1 construct: also called B-cell surface antigen B4; B-cell antigen CD19
T1 sequence: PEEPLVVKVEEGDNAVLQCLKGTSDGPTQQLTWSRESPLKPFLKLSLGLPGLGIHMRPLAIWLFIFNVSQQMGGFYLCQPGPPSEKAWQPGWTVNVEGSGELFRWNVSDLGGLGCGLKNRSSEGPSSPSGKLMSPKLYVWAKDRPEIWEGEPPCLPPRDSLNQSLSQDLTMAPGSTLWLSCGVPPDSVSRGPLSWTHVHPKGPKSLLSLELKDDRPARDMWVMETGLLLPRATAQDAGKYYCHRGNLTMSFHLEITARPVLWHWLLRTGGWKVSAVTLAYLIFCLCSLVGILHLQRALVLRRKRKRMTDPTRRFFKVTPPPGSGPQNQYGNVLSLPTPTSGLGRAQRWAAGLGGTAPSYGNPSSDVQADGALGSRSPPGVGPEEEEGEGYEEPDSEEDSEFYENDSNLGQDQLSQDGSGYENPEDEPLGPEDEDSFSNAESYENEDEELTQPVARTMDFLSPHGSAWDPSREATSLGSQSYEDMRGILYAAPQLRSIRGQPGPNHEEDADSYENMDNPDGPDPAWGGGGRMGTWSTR

B1: H1.52 / L1 (antibody, V domains shown)
VH: EVQLVESGGGLVKPGGSLKLSCAASGYTFTSYVMHWVRQAPGKGLEWIGYINPYNDGTKYNEKFQGRVTISSDKSISTAYMELSSLRSEDTAMYYCARGTYYYGTRVFDYWGQGTLVTVSS
VL: DIVMTQSPATLSLSPGERATLSCRSSKSLLNSNGNTYLYWFQQKPGQSPQLLIYRMSNLASGVPDRFSGSGSGTEFTLTISSLEPEDFAVYYCMQHLEYPFTFGAGTKLEIK
notes: vs H1L1 (Kabat): VH S100cT; also called 4G7 H1.52_L1
B2: H1.147 / L1 (antibody, V domains shown)
VH: B1 VH with T105S, D109S
VL: B1 VL
notes: vs H1L1 (Kabat): VH D101S; also called 4G7 H1.147_L1
B3: H1.113 / L1 (antibody, V domains shown)
VH: B1 VH with T58H, T105S
VL: B1 VL
notes: vs H1L1 (Kabat): VH T57H; also called 4G7 H1.113_L1
B4: H1.52 / L1.139 (antibody, V domains shown)
VH: B1 VH
VL: B1 VL with S32V, F101N
notes: vs H1L1 (Kabat): VH S100cT; VL S27eV/F96N; also called 4G7 H1.52_L1.139
B5: H1.52 / L1.145 (antibody, V domains shown)
VH: B1 VH
VL: B1 VL with L30Q, F101I
notes: vs H1L1 (Kabat): VH S100cT; VL L27cQ/F96I; also called 4G7 H1.52_L1.145
B6: H1.192 / L1.146 (antibody, V domains shown)
VH: B1 VH with T58P
VL: B1 VL with S32V, A60N, F101N
notes: vs H1L1 (Kabat): VH T57P/S100cT; VL S27eV/A55N/F96N; also called 4G7 H1.192_L1.146
B7: H1.52 / L1.149 (antibody, V domains shown)
VH: B1 VH
VL: B1 VL with L30Q, A60N, F101I
notes: vs H1L1 (Kabat): VH S100cT; VL L27cQ/A55N/F96I; also called 4G7 H1.52_L1.149
B8: H1.196 / L1.146 (antibody, V domains shown)
VH: B1 VH with T58P, R106S
VL: B1 VL with S32V, A60N, F101N
notes: vs H1L1 (Kabat): VH T57P/S100cT/R100dS; VL S27eV/A55N/F96N; also called 4G7 H1.196_L1.146
B9: H1.52 / L1.160 (antibody, V domains shown)
VH: B1 VH
VL: B1 VL with L30Q, S32V, G34A, A60N, F101I
notes: vs H1L1 (Kabat): VH S100cT; VL L27cQ/S27eV/G29A/A55N/F96I; also called 4G7 H1.52_L1.160
B10: H1.65 / L1 (antibody, V domains shown)
VH: B1 VH with T105S, R106S
VL: B1 VL
notes: vs H1L1 (Kabat): VH R100dS; also called 4G7 H1.65_L1
B11: H1.146 / L1 (antibody, V domains shown)
VH: B1 VH with T105S, D109H
VL: B1 VL
notes: vs H1L1 (Kabat): VH D101H; also called 4G7 H1.146_L1
B12: H1.191 / L1.161 (antibody, V domains shown)
VH: B1 VH with K59E
VL: B1 VL with L30Q, S32V, G34S, A60N, F101I
notes: vs H1L1 (Kabat): VH K58E/S100cT; VL L27cQ/S27eV/G29S/A55N/F96I; also called 4G7 H1.191_L1.161
B13: H1.52 / L1.138 (antibody, V domains shown)
VH: B1 VH
VL: B1 VL with S32V, A60N
notes: vs H1L1 (Kabat): VH S100cT; VL S27eV/A55N; also called 4G7 H1.52_L1.138
B14: H1.109 / L1 (antibody, V domains shown)
VH: B1 VH with T58P, T105S
VL: B1 VL
notes: vs H1L1 (Kabat): VH T57P; also called 4G7 H1.109_L1
B15: H1.191 / L1.149 (antibody, V domains shown)
VH: B1 VH with K59E
VL: B1 VL with L30Q, A60N, F101I
notes: vs H1L1 (Kabat): VH K58E/S100cT; VL L27cQ/A55N/F96I; also called 4G7 H1.191_L1.149
B16: H1.192 / L1.141 (antibody, V domains shown)
VH: B1 VH with T58P
VL: B1 VL with A60N, F101N
notes: vs H1L1 (Kabat): VH T57P/S100cT; VL A55N/F96N; also called 4G7 H1.192_L1.141
B17: H1.52 / L1.155 (antibody, V domains shown)
VH: B1 VH
VL: B1 VL with L30Q, S32V, A60N, F101I
notes: vs H1L1 (Kabat): VH S100cT; VL L27cQ/S27eV/A55N/F96I; also called 4G7 H1.52_L1.155
B18: H1.196 / L1 (antibody, V domains shown)
VH: B1 VH with T58P, R106S
VL: B1 VL
notes: vs H1L1 (Kabat): VH T57P/S100cT/R100dS; also called 4G7 H1.196_L1
B19: H1.62 / L1 (antibody, V domains shown)
VH: B1 VH with T105S, R106E
VL: B1 VL
notes: vs H1L1 (Kabat): VH R100dE; also called 4G7 H1.62_L1
B20: H1.60 / L1 (antibody, V domains shown)
VH: B1 VH with T105L
VL: B1 VL
notes: vs H1L1 (Kabat): VH S100cL; also called 4G7 H1.60_L1
B21: H1.192 / L1.152 (antibody, V domains shown)
VH: B1 VH with T58P
VL: B1 VL with L30Q, S32V, F101N
notes: vs H1L1 (Kabat): VH T57P/S100cT; VL L27cQ/S27eV/F96N; also called 4G7 H1.192_L1.152
B22: H1.78 / L1 (antibody, V domains shown)
VH: B1 VH with D56A, T105S
VL: B1 VL
notes: vs H1L1 (Kabat): VH D55A; also called 4G7 H1.78_L1
B23: H1 / L1.11 (antibody, V domains shown)
VH: B1 VH with T105S
VL: B1 VL with E98N
notes: vs H1L1 (Kabat): VL E93N; also called 4G7 H1_L1.11
B24: H1 / L1.124 (antibody, V domains shown)
VH: B1 VH with T105S
VL: B1 VL with L59W
notes: vs H1L1 (Kabat): VL L54W; also called 4G7 H1_L1.124
B25: H1.191 / L1.160 (antibody, V domains shown)
VH: B1 VH with K59E
VL: B1 VL with L30Q, S32V, G34A, A60N, F101I
notes: vs H1L1 (Kabat): VH K58E/S100cT; VL L27cQ/S27eV/G29A/A55N/F96I; also called 4G7 H1.191_L1.160
B26: H1.52 / L1.143 (antibody, V domains shown)
VH: B1 VH
VL: B1 VL with L30Q, A60N
notes: vs H1L1 (Kabat): VH S100cT; VL L27cQ/A55N; also called 4G7 H1.52_L1.143
B27: H1.192 / L1.144 (antibody, V domains shown)
VH: B1 VH with T58P
VL: B1 VL with L30Q, F101N
notes: vs H1L1 (Kabat): VH T57P/S100cT; VL L27cQ/F96N; also called 4G7 H1.192_L1.144
B28: H1.192 / L1.154 (antibody, V domains shown)
VH: B1 VH with T58P
VL: B1 VL with L30Q, S32V, A60N, F101N
notes: vs H1L1 (Kabat): VH T57P/S100cT; VL L27cQ/S27eV/A55N/F96N; also called 4G7 H1.192_L1.154
B29: H1.144 / L1 (antibody, V domains shown)
VH: B1 VH with T105S, D109N
VL: B1 VL
notes: vs H1L1 (Kabat): VH D101N; also called 4G7 H1.144_L1
B30: H1.191 / L1.155 (antibody, V domains shown)
VH: B1 VH with K59E
VL: B1 VL with L30Q, S32V, A60N, F101I
notes: vs H1L1 (Kabat): VH K58E/S100cT; VL L27cQ/S27eV/A55N/F96I; also called 4G7 H1.191_L1.155
B31: H1.192 / L1.148 (antibody, V domains shown)
VH: B1 VH with T58P
VL: B1 VL with L30Q, A60N, F101N
notes: vs H1L1 (Kabat): VH T57P/S100cT; VL L27cQ/A55N/F96N; also called 4G7 H1.192_L1.148

Substitutions are numbered along the chain they refer to. Names and notes keep the numbering of the source.

The assay deals with T1, human CD19. The assay can be described thus: binding affinity relative to the parent H1L1 mAb (Example 5); assay and format not named on the sheet.
As for B1, the Fold change binding amounted to 3.22 fold.
Turning to B2, the Fold change binding was determined as 2.65 fold.
With B3 the figure was 1.29 fold.
To B4 belongs 1.8 fold; to B5, 6.41 fold; to B6, 3.19 fold.
To B7 belongs 8.6 fold; to B8, 3.57 fold.
B9: the Fold change binding is 4.18 fold.
As to B10, the Fold change binding was found to be 1.41 fold.
Consider B11, for which the Fold change binding was determined as 2.45 fold.
To B12 belongs 3.97 fold; to B13, 3.93 fold; to B14, 1.52 fold.
B15: the Fold change binding was 6.02 fold.
To B16 belongs 2.57 fold.
To B17 belongs 6.16 fold; to B18, 3.42 fold.
Regarding B19, the Fold change binding is 1.65 fold.
To B20 belongs 1.56 fold; to B21, 2.98 fold.
Take B22: the Fold change binding was 1.14 fold.
With B23 the figure was 1.59 fold; with B24, 1.47 fold; with B25, 2.91 fold.
With B26 the figure was 3.83 fold; with B27, 3.63 fold.
On to B28, for which the Fold change binding was determined as 5.12 fold.
With B29 the figure was 2.26 fold; with B30, 4.56 fold.
For B31, the Fold change binding worked out at 4.63 fold.

The record behind these values is patent US20100272723A1 (Xencor, published 2010).
